Source: the RNAGym collection of RNA variant scans (doi:10.1073/pnas.2313332121)
Fewer inactive variants are shown than the library holds.

B1: TPR 5TU (parent)
chain: GGAUCUUCUCGAUCUAACAAAAAAGACAAAUCUGCCACAAAGCUUGAGAGCAUCUUCGGAUGCAGAGGCGGCAGCCUUCGGUGGCGCGAUAGCGCCAACGUUCUCAACUAUGACACGCAAAACGCGUGCUCCGUUGAAUGGAGUUUAUCAUG

Variants of: B1
Experiment: polymerase ribozyme fitness, log enrichment relative to wild type (log ratio); higher = more active; in vitro selection for triplet polymerase activity
Outline: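 Each subunit of a heterodimeric triplet polymerase ribozyme was mutagenized into a library by PCR, transcribed, and subjected to one round of in vitro selection, run in triplicate. Libraries were annealed with a biotinylated primer, the partner subunit and triplets, incubated frozen at −7 °C, and extended constructs were gel-excised, captured on streptavidin beads and recovered by RT-PCR. Input and output libraries were sequenced on Illumina, keeping genotypes with ≥10 input reads and ≥1 read per output. Fitness is log base 2 of genotype enrichment divided by wild-type enrichment, from inverse-variance-weighted replicate averages.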

Variant | polymerase ribozyme fitness (log ratio)
A39G G84A C116U | -1.91
A39C A52G G70A C99G G100A U144A | ≤ -4.2
A39G G59A C96G U146C | -3.67
A39U C54U C57G U61A C95G C125G | ≤ -4.2
A39U G100C U148A | -4.2
C38U U55G G84C A98U | -1
A39U C69A G74C C76U C87A | ≤ -4.2
A40C G42C C69G C85A U104G G128C G133A | ≤ -4.2
A39G A60C | -3.03
A39C G84A | -3.26
A39C U53A G62C U144A | ≤ -4.2
C38U G80C C85U G100U | ≤ -4.2
A39C U53A G86C C105A A119U | ≤ -4.2
A39U U44C U53A G62U G86A | ≤ -4.2
A40C A49C C54A C96U C114U G126A | ≤ -4.2
C38U U90G C95A | ≤ -4.2
A39C U56G A73G | -3.36
A39U A60G A137U | -4.19
A39C G88C A97G C114G | ≤ -4.2
A39U U61C C96A | -3.93
A39U A64G G86A A89G U135A | ≤ -4.2
A39G C118U | -1.27
A40C G42A A52C G94C C99U | ≤ -4.2
A39U A52G G74U U90A A122G C125G C129U | ≤ -4.2

Variant | polymerase ribozyme fitness (log ratio)
A39G U55A C96A A97U | -3.27
A39U G50U G83A C96G C103U U135G | ≤ -4.2
C38U G50A A52U G68U G80A A97G A137U | ≤ -4.2
A39C A40C A49C | ≤ -4.2
A39U G59C G83U A147U | -2.17
A40C A52U G68C C85A G128C | ≤ -4.2
A39U C79G G84U | ≤ -4.2
A39U A66C G68A C108U A121U U134A G143U | ≤ -4.2
C38U G50A U77C C87G | ≤ -4.2
A39G A97U | -2.96
C38U U44A A47U G67C C69U G84A | ≤ -4.2
A39C U55A C118U | -2.2
A39C G143U | -4.15
C38U G86U C118U | -2.07
C38U G62U C96G | -1.8
A39G G42C A47C A91U C93U U101G A119U C125U G133U G136A | ≤ -4.2
A39U G92C U127A | ≤ -4.2
A39U A91C G141C U148G | ≤ -4.2
A40C A97U | -0.185
A40C A97C | 1.5
A39U A47G C95U A110G | -3.7
A39G G80U C95U C116G | -3.6
A39C G141U | -2.91
C38U G58C C96U A98G | 0.385

Variant | polymerase ribozyme fitness (log ratio)
A39U G71C G84A C103U | ≤ -4.2
A39U A40U A91U C95G | ≤ -4.2
A39U A89G G126U | -3.58
A39G G117C | -1.91
A39U C54U C96A | -2.72
A39G G88C A91U G136U | ≤ -4.2
A39C U130G | ≤ -4.2
C38U G92A U146A | -2.92
A39U U45G C85A A91C G92C | ≤ -4.2
A39U C54U U55G C93U C103U | ≤ -4.2
C38U U53A C105U | 0.169
A40C A60U | 0.0412
A39G U77A G143C | ≤ -4.2
A39G C75U C85U | -3.44
A39U C76A G83U C125U | ≤ -4.2
C38U G83A G100A C129G | ≤ -4.2
A40C A52C G86A A98G | -2.37
A39G G80C C93U C118U | -3.96
A40C A52C G83A | -2.55
A39U C118U | -2.03
A39C G71C U78A C95U A122G | ≤ -4.2
C38U G86A A137G A147U | -2.49
A39C G88U A97G A122G | ≤ -4.2
C38U G81A C99G A120U G124C | -3.02

Variant | polymerase ribozyme fitness (log ratio)
C38U G62A C96U C129U | -0.672
A39C C76U G83U U104C | ≤ -4.2
C38U U78C C95U | -0.556
A39G G86C U109C G128U G140C | ≤ -4.2
A39G G42A G48C A49C G83U C87G C96A A107U | ≤ -4.2
A40C A49U C57A C76A U82C G94U | ≤ -4.2
A39C A41C G86U U139G | ≤ -4.2
A39C C57A G86A U130C | -2.93
A40C C76G U151A | ≤ -4.2
A39C G81C C85U C116A G141C | ≤ -4.2
A39U G46C G48A G50C U56A G84U | ≤ -4.2
A40C A41C G58C A91U G124A C125A | ≤ -4.2
C38U C96G G152U | -3.85
A39U C96G | -2.11
A39U C96A | -2.81
A39C G59U C76G U146G | ≤ -4.2
A39C U145C | -1.66
A39C C87U U101G G117U | -3.2
A39U C69U C95U C129G | ≤ -4.2
A39C G84A U144A | -2.69
A39U G68A A73G C87G C132A G141C U144C | ≤ -4.2
A39C G42C C76A U144G | ≤ -4.2
A39C U45A G48U C57G G70A G83C C96U A115G G141A | ≤ -4.2
A40C C85U C95U A98G G126U | -1.37

Variant | polymerase ribozyme fitness (log ratio)
A39G C87U A89G G126A C132U | ≤ -4.2
A39C C63A A64U G84A C93G C116G | ≤ -4.2
A39U A73U | -4.11
A39C A91U G94A G133C A142U U145A U148A | ≤ -4.2
A39G U56G G58C C79U U102A U127G | ≤ -4.2
A39U A60U G81A C85A C93U | ≤ -4.2
A40C A47C C93A A137G U146C | -4.13
A40C A98G C131U U134A | -2.13
A39U U139A | -3.87
A39C G68A G80A C118U G128U | ≤ -4.2
A39C U55G G81C A121U | -2.31
A39G U77G | ≤ -4.2
A39G C54A A91G G94A | ≤ -4.2
A39G G62A G94A A120U G143U | ≤ -4.2
A39G G58U G59C G124C G136A | ≤ -4.2
A40C A49C U56A A60C G84A G136A | ≤ -4.2
A39G G83A U101A | ≤ -4.2
A39U A49C A137G | ≤ -4.2
A39U A41C G80C G84U A142C C149A | ≤ -4.2
C38U C125A | -0.6
A39U A122G U145G | -2.48
A39G C87U A147C C149A | ≤ -4.2
C38U G86A U148C | -3.22
C38U U45A G68C U102G A138G | ≤ -4.2

Variant | polymerase ribozyme fitness (log ratio)
A40C C85U G133C A142G | -3.92
A39C A47U | -2.53
A39C G92U C95A G112A U145G | ≤ -4.2
A39G G59C U104A | -3.12
A40C A60G U139C U144C | -3.63
A39C A60G C87U A147C | -3.78
C38U G136U | -2.3
A39U A107G G140C | ≤ -4.2
C38U G92U C95G A106U | ≤ -4.2
C38U G94U | -0.0168
A39G U55A G71A G92C C96U C131U C149A | ≤ -4.2
A39G C75U C85U A137G | -3.67
A39G G42A G88C | ≤ -4.2
C38U G48C G92A A142C G143U | ≤ -4.2
A39U U53C C108G C149U | ≤ -4.2
A40C C54A A89U G94U | -2.57
C38U G58A U61A U134C | -1.57
A39C A91U G92A U139G | ≤ -4.2
A39C U53G C85U | -4.06
A39U U55G U82C C85U U146C | -2.49
A40C A52U U55A C93U | -3.92
A39C A89C A119U A120G U130A | ≤ -4.2
A40C A98U A122U | 0.766
A40C C131G | -3.13

Variant | polymerase ribozyme fitness (log ratio)
A39G U53A C87U A115C | -3.83
C38U U148C | -1.36
A39U C51G U55G U61G C85U C99U | ≤ -4.2
A40C C76U C93G G152A | ≤ -4.2
A39U G42C U77C C85A C95G | ≤ -4.2
A39G G141C | -2.65
C38U U82C C85U U90G C99U C105U C108G A120G | ≤ -4.2
A39G C57A C87U | -1.73
A39U U101C U144G | -2.52
A39G A147U | -0.693
A40C C85U | -0.549
A40C C85A | -2.39
A39G U55G G84A U135G | ≤ -4.2
A39C G58A G59C | -1.49
A39C C118U A120U | -1.81
C38U G50U U56A G74U C75G C125U U139A | ≤ -4.2
A39U A40C G42U G48A A60U U82G C85A U104A U127C | ≤ -4.2
A39U U45C C93U | ≤ -4.2
C38U G86U | -1.57
C38U G86A | -1.16
A40C A89U | 0.433
A39G G48A C51U U56C G59U A150C | ≤ -4.2
A39C U53C U135C | -3.94
